In publication PMC9958085, “A novel mechanism underlying allosteric regulation of ADAMTS-13 revealed by hydrogen−deuterium exchange plus mass spectrometry” (Research and Practice in Thrombosis and Haemostasis, 2022):

T1: N-terminal ADAMTS-13 fragment MDTCS (aa1-685) (UniProt Q76LX8 30-685)
T1 construct: signal peptide in the construct; ADAMTS-13, N-terminal fragment MDTCS (metalloprotease, disintegrin-like domain, first TSP1 repeat, cysteine-rich and spacer domain), aa1-685; The signal peptide and propeptide are probably removed on secretion (surmise); also called ADAMTS-13 variant truncated after spacer domain; source: Drosophila (S2) cell line, purified
T1 sequence (looked up): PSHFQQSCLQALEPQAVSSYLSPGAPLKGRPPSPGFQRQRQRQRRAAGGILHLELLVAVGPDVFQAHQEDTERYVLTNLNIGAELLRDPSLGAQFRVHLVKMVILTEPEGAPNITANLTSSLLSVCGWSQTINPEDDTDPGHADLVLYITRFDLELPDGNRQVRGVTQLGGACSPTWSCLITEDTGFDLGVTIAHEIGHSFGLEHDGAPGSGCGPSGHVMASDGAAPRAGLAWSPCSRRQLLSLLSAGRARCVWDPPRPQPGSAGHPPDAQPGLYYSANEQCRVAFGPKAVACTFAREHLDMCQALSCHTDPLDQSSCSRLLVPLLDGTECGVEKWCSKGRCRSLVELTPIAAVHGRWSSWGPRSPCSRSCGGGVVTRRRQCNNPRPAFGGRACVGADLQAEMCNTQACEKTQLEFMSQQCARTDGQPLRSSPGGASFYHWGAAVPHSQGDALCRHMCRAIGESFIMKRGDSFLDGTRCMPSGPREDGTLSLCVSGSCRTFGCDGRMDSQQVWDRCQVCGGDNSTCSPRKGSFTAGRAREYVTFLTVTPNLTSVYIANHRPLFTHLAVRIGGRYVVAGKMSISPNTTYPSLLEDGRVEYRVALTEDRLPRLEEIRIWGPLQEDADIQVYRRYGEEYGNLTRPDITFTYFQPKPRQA

T2: ADAMTS-13 CUB domain fragment
T2 chain: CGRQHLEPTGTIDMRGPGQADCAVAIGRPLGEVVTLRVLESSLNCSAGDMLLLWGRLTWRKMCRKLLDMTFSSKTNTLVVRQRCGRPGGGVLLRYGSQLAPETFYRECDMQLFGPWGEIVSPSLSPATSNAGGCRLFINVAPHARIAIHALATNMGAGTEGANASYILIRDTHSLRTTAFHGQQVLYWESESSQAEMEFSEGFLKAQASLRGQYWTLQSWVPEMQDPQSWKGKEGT


Assays:
[1] = biological target: T1, N-terminal ADAMTS-13 fragment MDTCS …; experiment: SPR; CUB fragment immobilised on a CM5 chip through amine-coupling; N-terminal fragment perfused at 30 μl/min for 120 s, dissociation 300 s; KD from maximal RU as a function of concentration (0-1.0 μM), Prism 8.0; conditions: both partners purified
[2] = biological target: T2, ADAMTS-13 CUB domain fragment; experiment: as above; conditions: both partners purified

Binder | Kd [1] [nM] | Kd [2] [nM]
ADAMTS-13 CUB domain fragment (domain or fragment, CUB1+CUB2 taken from the conventional CUB1 start to the C-terminus; HEK-293 expressed (likely N-glycosylated); amine-coupled to CM5 chip) CGRQHLEPTGTIDMRGPGQADCAVAIGRPLGEVVTLRVLESSLNCSAGDMLLLWGRLTWRKMCRKLLDMTFSSKTNTLVVRQRCGRPGGGVLLRYGSQLAPETFYRECDMQLFGPWGEIVSPSLSPATSNAGGCRLFINVAPHARIAIHALATNMGAGTEGANASYILIRDTHSLRTTAFHGQQVLYWESESSQAEMEFSEGFLKAQASLRGQYWTLQSWVPEMQDPQSWKGKEGT | 330 | –
ADAMTS-13 construct consisting of a disintegrin, the first thrombospondin type 1 repeat, a cysteine-rich and a spacer domain (DTCS) (domain or fragment, disintegrin start by convention, end 685 from printed MDTCS limit; HEK-293 expressed (likely glycosylated) / CUB1+CUB2 taken from the conventional CUB1 start to the C-terminus; HEK-293 expressed …) RPQPGSAGHPPDAQPGLYYSANEQCRVAFGPKAVACTFAREHLDMCQALSCHTDPLDQSSCSRLLVPLLDGTECGVEKWCSKGRCRSLVELTPIAAVHGRWSSWGPRSPCSRSCGGGVVTRRRQCNNPRPAFGGRACVGADLQAEMCNTQACEKTQLEFMSQQCARTDGQPLRSSPGGASFYHWGAAVPHSQGDALCRHMCRAIGESFIMKRGDSFLDGTRCMPSGPREDGTLSLCVSGSCRTFGCDGRMDSQQVWDRCQVCGGDNSTCSPRKGSFTAGRAREYVTFLTVTPNLTSVYIANHRPLFTHLAVRIGGRYVVAGKMSISPNTTYPSLLEDGRVEYRVALTEDRLPRLEEIRIWGPLQEDADIQVYRRYGEEYGNLTRPDITFTYFQPKPRQA | – | 460
